Each block holds one molecule with its values, some of them ahead of it.
How the values were obtained:
CD28 [1] = target: T1, CD28 (Homo sapiens, UniProt P10747); assay: Flow binding to Jurkat/IL2 reporter cells (CD28); design: host or cells: Jurkat cells expressing an IL-2-luciferase reporter
Experimental: (§1) Binding of selected immunomodulatory fusion proteins to cognate binding partners was assessed. […] Cells were sorted in a Bio-Rad S3 Cell Sorter (Bio-Rad Corp., USA) to >98% purity. Jurkat/IL2 reporter cells, which endogenously express CD28, were used to detect binding to CD28.
(§2) For staining and analysis by flow cytometry, 100,000 cells of appropriate transfected cells were plated in 96-well round bottom plates. Cells were spun down and resuspended in staining buffer (phosphate buffered saline (PBS), 1% bovine serum albumin (BSA), and 0.1% sodium azide) for 20 minutes to block non-specific binding. […] Primary staining was performed on ice for 45 minutes, before washing cells in staining buffer twice. Phycoerythrin (PE)-conjugated anti-human Fc (Jackson ImmunoResearch, USA) was diluted 1:150, added to cells and incubated another 30 minutes on ice. Cells were then washed twice with 150 μL/well stain buffer, fixed in 2% formaldehyde/PBS, and analyzed on Intellicyt flow cytometer (Intellicyt Corp., USA). PE Mean Fluorescence Intensity (MFI) was calculated for each cell type with FlowJo Version 10 software (FlowJo LLC, USA).
(§3) Binding assays were carried out to assess the specificity and affinity of multivalent proteins to cell-expressed CTLA-4, CD28, and PD-L1 counter structures.
(§4) The EC50 for binding also was determined.

huPD-L1 = huPD-L1 (Homo sapiens, UniProt Q9NZQ7); assay: Flow binding to CHO cells stably expressing PD-L1; design: huCTLA4 and huPD-L1, full-length mammalian surface expression constructs were generated; expressed in transfected cells; host or cells: CHO cells, lentiviral transduction, sorted to >98% purity; settings: CHO cells stably expressing PD-L1
huPD-L1, sequence (Q9NZQ7 19-290): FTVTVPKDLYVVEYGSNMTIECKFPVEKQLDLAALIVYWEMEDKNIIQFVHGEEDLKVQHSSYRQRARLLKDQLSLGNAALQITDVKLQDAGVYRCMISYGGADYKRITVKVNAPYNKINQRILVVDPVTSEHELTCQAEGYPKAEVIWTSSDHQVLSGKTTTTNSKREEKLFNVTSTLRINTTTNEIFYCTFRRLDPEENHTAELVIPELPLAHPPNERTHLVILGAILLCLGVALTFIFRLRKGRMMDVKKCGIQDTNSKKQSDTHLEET
Experimental: as §1, §2, §3, §4

CD28 [2] = target: T1, CD28; assay: Jurkat/IL2 + CHO/OKT3 +/- PD-L1 reporter assay: PD-L1-dependent CD28 costimulation; format: cell-based; design: host or cells: Jurkat cells expressing an IL-2-luciferase reporter; settings: Jurkat/IL2 + CHO/OKT3/PD-L1
Experimental: Jurkat cells were then plated at 50 μL/well for a total of 100,000 cells per well.
To each well, 25 μL of test protein was added to the Jurkat cells. […] The Jurkat cells with test or control proteins were incubated for 15 minutes at room temperature. CHO-derived artificial antigen presenting cells (aAPC) displaying transduced cell surface anti-CD3 single chain Fv (OKT3) (i.e., no PD-L1), or OKT3 and PD-L1 (i.e., +PD-L1), were brought to 0.8×10^6 cells/mL, and 25 μL of cells were added to each well, bringing the final volume of each well to 100 μL. […] Jurkat cells and CHO cells were incubated for 5 hours at 37 degrees Celsius in a humidified 5% CO2 incubation chamber. Plates were then removed from the incubator and acclimated to room temperature for 15 minutes. 100 μL of a cell lysis and luciferase substrate solution (BioGlo luciferase reagent, Promega) were added to each well and the plates were incubated on an orbital shaker for 10 minutes. Luminescence was measured with a 1 second per well integration time using a BioTek Cytation luminometer, and a relative luminescence value (RLU) was determined for each test sample.

[3] = Table E11, Jurkats (CD28), 33.3 nM
[4] = Table E10, 33.3 nM, Jurkats (CD28)
[5] = Table E19, Jurkats (CD28), 33.3 nM

B1: V22D/E24D/E35D/M47L/V68M (protein)
chain: VIHVTKEVKEVATLSCGHNVSDEDLAQTRIYWQKDKKMVLTMMSGDLNIWPEYKNRTIFDITNNLSIMILALRPSDEGTYECVVLKYEKDAFKREHLAEVTLSVKADFPTPSISDFETPTSNIRRIICSTSGGFPEPHLSWLENGEELNAINTTVSQDPETELYAVSSKLDFNMTTNHSFMCLIKYGHLRVNQTFNWNTTKQEHFPDN
modifications: CD80 v383 ECD
CD28 MFI at 33.3 nM (CD28 [1]; [3]): 1254
PD-L1 MFI at 33.3 nM (huPD-L1; Table E11, 33.3 nM): 15418
Relative Luciferase Units (RLU), CD80 Cone 5.0 nM (CD28 [2]; Table E13, 5.0 nM): 974 RLU

B2: E35D/D46E/M47L/V68M/T79M/L85M (protein, UniProt P33681 35-288, looked up, variant E35D D46E M47L V68M T79M L85M)
T-lymphocyte activation …: VIHVTKEVKEVATLSCGHNVSVEELAQTRIYWQKDKKMVLTMMSGELNIWPEYKNRTIFDITNNLSIMILALRPSDEGMYECVVMKYEKDAFKREHLAEVTLSVKADFPTPSISDFEIPTSNIRRIICSTSGGFPEPHLSWLENGEELNAINTTVSQDPETELYAVSSKLDFNMTTNHSFMCLIKYGHLRVNQTFNWNTTKQEHFPDNLLPSWAITLISVNGIFVICCLTYCFAPRCRERRRNERLRRESVRPV
CD28 MFI at 33.3 nM (CD28 [1]; [3]): 403
PD-L1 MFI at 33.3 nM (huPD-L1; Table E11, 33.3 nM): 8641
Relative Luciferase Units (RLU), CD80 Cone 5.0 nM (CD28 [2]; Table E13, 5.0 nM): 1137 RLU

B3: H18Y/E35D/V68M/L85M/R94Q (protein, UniProt P33681 35-288, looked up, variant H18Y E35D V68M L85M R94Q)
T-lymphocyte activation …: VIHVTKEVKEVATLSCGYNVSVEELAQTRIYWQKDKKMVLTMMSGDMNIWPEYKNRTIFDITNNLSIMILALRPSDEGTYECVVMKYEKDAFKQEHLAEVTLSVKADFPTPSISDFEIPTSNIRRIICSTSGGFPEPHLSWLENGEELNAINTTVSQDPETELYAVSSKLDFNMTTNHSFMCLIKYGHLRVNQTFNWNTTKQEHFPDNLLPSWAITLISVNGIFVICCLTYCFAPRCRERRRNERLRRESVRPV
CD28 MFI at 33.3 nM (CD28 [1]; [3]): 14
CD28 MFI at 33.3 nM (CD28 [1]; Table E16, consensus variants, Jurkats (CD28), 33.3 nM): 962
PD-L1 MFI at 33.3 nM (huPD-L1; Table E11, 33.3 nM): 14410
PD-L1 MFI at 33.3 nM (huPD-L1; Table E16, consensus variants, 33.3 nM): 9283
Relative Luciferase Units (RLU), CD80 Cone 5.0 nM (CD28 [2]; Table E13, 5.0 nM): 195 RLU
Relative Luciferase Units (RLU), CD80 Cone 5.0 nM (CD28 [2]; Table E17, consensus variants, 5.0 nM): 2215 RLU

B4: H18Y/E35D/M47V/V68M/A71G (protein, UniProt P33681 35-288, looked up, variant H18Y E35D M47V V68M A71G)
T-lymphocyte activation …: VIHVTKEVKEVATLSCGYNVSVEELAQTRIYWQKDKKMVLTMMSGDVNIWPEYKNRTIFDITNNLSIMILGLRPSDEGTYECVVLKYEKDAFKREHLAEVTLSVKADFPTPSISDFEIPTSNIRRIICSTSGGFPEPHLSWLENGEELNAINTTVSQDPETELYAVSSKLDFNMTTNHSFMCLIKYGHLRVNQTFNWNTTKQEHFPDNLLPSWAITLISVNGIFVICCLTYCFAPRCRERRRNERLRRESVRPV
CD28 MFI at 33.3 nM (CD28 [1]; Table E23, CD80 IgV-Fc (inert) at 33.3 nM, Jurkat (CD28)): 3227
PD-L1 MFI at 33.3 nM (huPD-L1; Table E23, CD80 IgV-Fc (inert) at 33.3 nM): 64919
Relative Luciferase Units (RLU), CD80 Conc 5.0 nM (CD28 [2]; Table E24, 5.0 nM): 963 RLU

B6: E35D/M47L/V68M/E95V/L97Q (protein, UniProt P33681 35-288, looked up, variant E35D M47L V68M E95V L97Q)
T-lymphocyte activation …: VIHVTKEVKEVATLSCGHNVSVEELAQTRIYWQKDKKMVLTMMSGDLNIWPEYKNRTIFDITNNLSIMILALRPSDEGTYECVVLKYEKDAFKRVHQAEVTLSVKADFPTPSISDFEIPTSNIRRIICSTSGGFPEPHLSWLENGEELNAINTTVSQDPETELYAVSSKLDFNMTTNHSFMCLIKYGHLRVNQTFNWNTTKQEHFPDNLLPSWAITLISVNGIFVICCLTYCFAPRCRERRRNERLRRESVRPV
modifications: Fc fusion
CD28 MFI at 33.3 nM (CD28 [1]; [3]): 14
PD-L1 MFI at 33.3 nM (huPD-L1; Table E11, 33.3 nM): 18600
Relative Luciferase Units (RLU), CD80 Cone 5.0 nM (CD28 [2]; Table E13, 5.0 nM): 1086 RLU

B7: E35D/L97R (protein)
chain: VIHVTKEVKEVATLSCGHNVSVEELAQTRIYWQKDKKMVLTMMSGDMNIWPEYKNRTIFDITNNLSIVILALRPSDEGTYECVVLKYEKDAFKREHRAEVTLSVKAD
CD28 MFI at 33.3 nM (CD28 [1]; [4]): 44.6
PD-L1 MFI at 33.3 nM (huPD-L1; Table E10, 33.3 nM): 2614
Relative Luciferase Units (RLU), CD80 Cone 5.0 nM (CD28 [2]; Table E12, 5.0 nM): 914 RLU

B12: A26E/E35D/V68M/A71G (protein)
chain: VIHVTKEVKEVATLSCGHNVSVEELEQTRIYWQKDKKMVLTMMSGDMNIWPEYKNRTIFDITNNLSIMILGLRPSDEGTYECVVLKYEKDAFKREHLAEVTLSVKAD
CD28 MFI at 33.3 nM (CD28 [1]; Table E20, Jurkats (CD28), 33.3 nM): 135
PD-L1 MFI at 33.3 nM (huPD-L1; Table E20, 33.3 nM): 12611
Relative Luciferase Units (RLU), CD80 Conc 5.0 nM (CD28 [2]; Table E22, CD80 Conc 5.0 nM): 839 RLU

B13: E35D/D46V/M47V/V68M/K89N (protein)
chain: VIHVTKEVKEVATLSCGHNVSVEELAQTRIYWQKDKKMVLTMMSGVVNIWPEYKNRTIFDITNNLSIMILALRPSDEGTYECVVLKYENDAFKREHLAEVTLSVKAD
CD28 MFI at 33.3 nM (CD28 [1]; [5]): 2119
PD-L1 MFI at 33.3 nM (huPD-L1; Table E19, 33.3 nM): 21603
Relative Luciferase Units (RLU), CD80 Conc 5.0 nM (CD28 [2]; Table E21, CD80 Conc 5.0 nM): 817 RLU

More lines, now with the values ahead:

CD28 MFI at 33.3 nM (CD28 [1]; Table E25, linker variants, 33.3 nM, Jurkats (CD28)): 2109
Relative Luciferase Units (RLU), CD80 Conc 5.0 nM (CD28 [2]; Table E26, linker variants, 5.0 nM): 1400 RLU
B5: E35D/M47V/N48K/V68M/K89N GS(G4S)3 (protein, UniProt P33681 35-288, looked up, variant E35D M47V N48K V68M K89N)
T-lymphocyte activation …: VIHVTKEVKEVATLSCGHNVSVEELAQTRIYWQKDKKMVLTMMSGDVKIWPEYKNRTIFDITNNLSIMILALRPSDEGTYECVVLKYENDAFKREHLAEVTLSVKADFPTPSISDFEIPTSNIRRIICSTSGGFPEPHLSWLENGEELNAINTTVSQDPETELYAVSSKLDFNMTTNHSFMCLIKYGHLRVNQTFNWNTTKQEHFPDNLLPSWAITLISVNGIFVICCLTYCFAPRCRERRRNERLRRESVRPV
modifications: GS(G4S)3 linker

CD28 MFI at 33.3 nM (CD28 [1]; [5]): 1534
PD-L1 MFI at 33.3 nM (huPD-L1; Table E19, 33.3 nM): 17425
B8: E35D/N48K/V68M/K89N (protein)
chain: VIHVTKEVKEVATLSCGHNVSVEELAQTRIYWQKDKKMVLTMMSGDMKIWPEYKNRTIFDITNNLSIMILALRPSDEGTYECVVLKYENDAFKREHLAEVTLSVKAD

CD28 MFI at 33.3 nM (CD28 [1]; [5]): 88.1
PD-L1 MFI at 33.3 nM (huPD-L1; Table E19, 33.3 nM): 5801
Relative Luciferase Units (RLU), CD80 Conc 5.0 nM (CD28 [2]; Table E21, CD80 Conc 5.0 nM): 416 RLU
B9: M47L/L85Q (protein)
chain: VIHVTKEVKEVATLSCGHNVSVEELAQTRIYWQKEKKMVLTMMSGDLNIWPEYKNRTIFDITNNLSIVILALRPSDEGTYECVVQKYEKDAFKREHLAEVTLSVKAD

CD28 MFI at 33.3 nM (CD28 [1]; [4]): 413
PD-L1 MFI at 33.3 nM (huPD-L1; Table E10, 33.3 nM): 5660
Relative Luciferase Units (RLU), CD80 Cone 5.0 nM (CD28 [2]; Table E12, 5.0 nM): 2116 RLU
B10: E35D/M47V/N48K/L85M (protein)
chain: VIHVTKEVKEVATLSCGHNVSVEELAQTRIYWQKDKKMVLTMMSGDVKIWPEYKNRTIFDITNNLSIVILALRPSDEGTYECVVMKYEKDAFKREHLAEVTLSVKAD

CD28 MFI at 33.3 nM (CD28 [1]; [4]): 582
PD-L1 MFI at 33.3 nM (huPD-L1; Table E10, 33.3 nM): 3031
Relative Luciferase Units (RLU), CD80 Cone 5.0 nM (CD28 [2]; Table E12, 5.0 nM): 1731 RLU
B11: E35D/N48K/L72V (protein)
chain: VIHVTKEVKEVATLSCGHNVSVEELAQTRIYWQKDKKMVLTMMSGDMKIWPEYKNRTIFDITNNLSIVILAVRPSDEGTYECVVLKYEKDAFKREHLAEVTLSVKAD
